From patent US20240117030A1 (Pfizer, published 2024)
Where a chain is given by its changes, count along the chain named. Read-outs that look alike come from different tables or passages of the source. Each block holds one binder with its values, some of them ahead of it.

Key:
[1] = target: T1, recombinant human IL-4 (human, UniProt P05112 25-153); assay: cell-based or functional assay
T1 sequence (looked up): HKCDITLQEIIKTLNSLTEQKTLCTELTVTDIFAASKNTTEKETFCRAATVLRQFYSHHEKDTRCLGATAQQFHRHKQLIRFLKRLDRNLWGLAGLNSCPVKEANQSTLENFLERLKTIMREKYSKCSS

[2] = target: T1, recombinant human IL-4; assay: cell-based or functional assay; remark: listed apart in the source
[3] = target: T2, biotinylated human IL-33 wild-type (WT), reduced with 3 mM DTT (human, UniProt O95760 112-270, limits assumed, biotinylated (site not stated)); assay: KinExA solution affinity, fixed antigen format, global fit
T2 sequence (looked up): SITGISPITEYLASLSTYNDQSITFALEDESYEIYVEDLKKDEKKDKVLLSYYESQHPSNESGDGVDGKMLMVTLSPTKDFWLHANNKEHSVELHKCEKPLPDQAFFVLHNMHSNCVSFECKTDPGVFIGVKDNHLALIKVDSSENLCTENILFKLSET

[4] = target: T3, recombinant human IL-33 (R&D Systems 3625-IL), reduced with DTT (human, UniProt O95760 112-270, limits assumed); assay: cell-based or functional assay
T3 sequence (looked up): T2 sequence (looked up)

[5] = target: T3, recombinant human IL-33 (R&D Systems …); assay: cell-based or functional assay; remark: listed apart in the source
[6] = target: T4, recombinant human IL-33 (human, UniProt O95760 112-270, limits assumed); assay: cell-based or functional assay
T4 sequence (looked up): T2 sequence (looked up)

[7] = target: T5, IL-33 mm2 (human, UniProt O95760 112-270, limits assumed); assay: cell-based or functional assay
T5 sequence (looked up): T2 sequence (looked up) with C97S, C116S, C121S, C148S

[8] = target: T3, recombinant human IL-33 (R&D Systems …); assay: cell-based or functional assay; remark: listed apart in the source
[9] = target: T6, human IL-33 mm2 Cys (human, UniProt O95760 112-270, limits assumed); assay: cell-based or functional assay
T6 sequence (looked up): T2 sequence (looked up) with C97S, C116S, C121S, C148S

[10] = target: T7, recombinant human IL-23 (human, UniProt Q9NPF7 20-189; P29460 23-328); assay: cell-based or functional assay
T7 sequence (looked up) 1: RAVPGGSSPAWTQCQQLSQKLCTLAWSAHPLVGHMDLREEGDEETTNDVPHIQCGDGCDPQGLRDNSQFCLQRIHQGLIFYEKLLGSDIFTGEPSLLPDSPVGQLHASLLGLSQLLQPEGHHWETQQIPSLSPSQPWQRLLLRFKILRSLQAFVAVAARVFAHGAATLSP
T7 sequence (looked up) 2: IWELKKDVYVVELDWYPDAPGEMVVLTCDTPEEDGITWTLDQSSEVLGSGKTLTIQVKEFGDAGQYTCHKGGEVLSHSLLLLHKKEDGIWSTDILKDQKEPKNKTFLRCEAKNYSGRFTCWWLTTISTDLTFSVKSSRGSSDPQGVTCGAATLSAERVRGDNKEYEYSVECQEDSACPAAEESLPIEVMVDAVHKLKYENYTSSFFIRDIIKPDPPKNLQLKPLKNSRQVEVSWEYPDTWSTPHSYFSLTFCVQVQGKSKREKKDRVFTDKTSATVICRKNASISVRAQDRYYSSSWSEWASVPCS

[11] = target: T8, recombinant human IL-12 (human, UniProt P29459 23-219; P29460 23-328); assay: cell-based or functional assay
T8 sequence (looked up) 1: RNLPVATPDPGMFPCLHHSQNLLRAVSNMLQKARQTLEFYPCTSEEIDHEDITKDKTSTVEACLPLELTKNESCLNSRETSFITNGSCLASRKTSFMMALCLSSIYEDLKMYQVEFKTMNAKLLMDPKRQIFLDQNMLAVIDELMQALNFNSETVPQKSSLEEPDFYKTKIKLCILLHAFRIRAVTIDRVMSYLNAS
T8 sequence (looked up) 2: T7 sequence (looked up) 2

[12] = target: T7, recombinant human IL-23; assay: cell-based or functional assay; remark: listed apart in the source
[13] = target: T8, recombinant human IL-12; assay: cell-based or functional assay; remark: listed apart in the source

B1: IL4-0002 (antibody, human IgG1, kappa)
heavy: EVTLRESGPALVKPTQTLTLTCTFSGFSLSNFGEGLSWIRQPPGKGLEWLAHIYWDDDKRYNPSLKSRLTISKDTSRNQVVLTMTNMDPVDTATYYCARRETVFYWYFDVWGQGTTVTVSSASTKGPSVFPLAPSSKSTSGGTAALGCLVKDYFPEPVTVSWNSGALTSGVHTFPAVLQSSGLYSLSSVVTVPSSSLGTQTYICNVNHKPSNTKVDKKVEPKSCDKTHTCPPCPAPEAAGAPSVFLFPPKPKDTLMISRTPEVTCVVVDVSHEDPEVKFNWYVDGVEVHNAKTKPREEQYNSTYRVVSVLTVLHQDWLNGKEYKCKVSNKALPAPIEKTISKAKGQPREPQVYTLPPSREEMTKNQVSLTCLVKGFYPSDIAVEWESNGQPENNYKTTPPVLDSDGSFFLYSKLTVDKSRWQQGNVFSCSVMHEALHNHYTQKSLSLSPGK
light: DIQMTQSPSSLSASVGDRVTITCKASQSVDEDGDSYMNWYQQKPGKAPKLLIYAASNLESGVPSRFSGSGSGTDFTLTISSLQPEDFATYYCQQSNEDPPTFGGGTKVEIKRTVAAPSVFIFPPSDEQLKSGTASVVCLLNNFYPREAKVQWKVDNALQSGNSQESVTEQDSKDSTYSLSSTLTLSKADYEKHKVYACEVTHQGLSSPVTKSFNRGEC
- IC50 (median), IL-4 induced CD23 expression on human monocytes [1]: 0.00209 nM
- IL-4 induced CD23 upregulation (IC50), parental IgG [2]: 0.00206 nM

B2: IL33-0726 (antibody, human IgG1, kappa, V domains shown)
VH: EVQLVESGGGLVQPGGSLRLSCAASGFTFSSYWMYWVRQAPGKGLEWVAAITPNAGEDYYPESVKGRFTISRDNAKNSLYLQMNSLRAEDTAVYYCARGQYYYTKYSLGYWGQGTLVTVSS
VL: DIQMTQSPSSLSASVGDRVTITCRASQPIHNHLDWYQQKPGKAPKLLIYFGKNLQEGVPSRFSGSGSGTDFTLTISSLQPEDFATYYCFQYKKGWSFGGGTKVEIKR
notes: also called IL33-0726 IgG; IL13433-0726
- Kd [3]: < 0.000237 nM
- IC50 [nM] versus reduced human IL-33 (R&D), IC50 (AVE) [4]: 0.008 nM
- IC50 [pM] versus human reduced IL-33 (R&D), Experiment 2 (HEK-Blue SEAP) [5]: 6 pM

B3: IL33-158LS (antibody, V domains shown)
VH: B2 VH with Q100H, K105S
VL: DIQMTQSPSSLSASVGDRVTITCKASQNINKHLDWYQQKPGKAPKLLIYFTNNLQTGVPSRFSGSGSGTDFTLTISSLQPEDFATYYCFQYNQGWTFGGGTKVEIK
- IC50 (mean), HEK-Blue IL-33 SEAP [6]: 0.0562 nM
- IC50 (mean), IFNg Whole Blood (IL-12 plus IL-33 mm2-Cys) [7]: 0.0162 nM

Second part, the binder after the results:

- IC50 [nM] versus reduced human IL-33 (R&D), IC50 (AVE) [8]: 0.071 nM
- Kd [3]: 0.0034 nM
- IC50 [nM] versus reduced human IL-33 (R&D), IC50 (AVE) [4]: 0.109 nM
- IC50 [pM] versus human IL-33 mm2 Cys (HEK-Blue SEAP) [9]: 142 pM
- IC50 [pM] versus human reduced IL-33 (R&D), Experiment 1 (HEK-Blue SEAP) [5]: 35 pM
B4: IL33-0232 (antibody, human IgG1, kappa, V domains shown)
VH: B2 VH with Q100H, K105S
VL: B2 VL with R24K, P28N, H30N, N31K, G51T, K52N, E56T, K92N, K93Q, S96T

- IC50 (mean), Kit-225 assay, IL-23 induced phospho-STAT3 [10]: 0.85 nM
- IC50 (mean), Whole blood assay, IL-23 induced phospho-STAT3 [10]: 4.51 nM
- IC50 (mean), Kit-225 assay, IL-12 induced phospho-STAT4 [11]: 0.155 nM
- IC50 (mean), Whole blood assay, IL-12 induced phospho-STAT4 [11]: 0.262 nM
- IC50 (mean), Kit-225 assay, IL-23 induced phospho-STAT3 [12]: 0.85 nM
- IC50 (mean), Whole blood assay, IL-23 induced phospho-STAT3 [12]: 4.51 nM
- IC50 (mean), Kit-225 assay, IL-12 induced phospho-STAT4 [13]: 0.155 nM
- IC50 (mean), Whole blood assay, IL-12 induced phospho-STAT4 [13]: 0.262 nM
B5: p40-0003 (antibody, human IgG1, kappa, V domains shown)
VH: EVQLVQSGAEVKKPGESLKISCKGSGYSFTTYWLGWVRQMPGKGLDWIGIMSPVDSDIRYSPSFQGQVTMSVDKSITTAYLQWNSLKASDTAMYYCARRRPGQGYFDFWGQGTLVTVSS
VL: DIQMTQSPSSLSASVGDRVTITCRASQGISSWLAWYQQKPEKAPKSLIYAASSLQSGVPSRFSGSGSGTDFTLTISSLQPEDFATYYCQQYNIYPYTFGQGTKLEIKR
